In PMC7693034, “Identification of Amino Acid Residues Responsible for C−H Activation in Type‐III Copper Enzymes by Generating Tyrosinase Activity in a Catechol Oxidase” (Angewandte Chemie (International Ed. in English), 2020) one finds Km and kcat data, which are given here for six molecules.

Data set [1] has as its target T1, CgAUS (aurone synthase from Coreopsis grandiflora) (Coreopsis grandiflora, UniProt A0A075DN54, T338D/R342D).
T1 construct: recombinant from E. coli, purified to homogeneity
T1 sequence (A0A075DN54 86-602 T338D/R342D): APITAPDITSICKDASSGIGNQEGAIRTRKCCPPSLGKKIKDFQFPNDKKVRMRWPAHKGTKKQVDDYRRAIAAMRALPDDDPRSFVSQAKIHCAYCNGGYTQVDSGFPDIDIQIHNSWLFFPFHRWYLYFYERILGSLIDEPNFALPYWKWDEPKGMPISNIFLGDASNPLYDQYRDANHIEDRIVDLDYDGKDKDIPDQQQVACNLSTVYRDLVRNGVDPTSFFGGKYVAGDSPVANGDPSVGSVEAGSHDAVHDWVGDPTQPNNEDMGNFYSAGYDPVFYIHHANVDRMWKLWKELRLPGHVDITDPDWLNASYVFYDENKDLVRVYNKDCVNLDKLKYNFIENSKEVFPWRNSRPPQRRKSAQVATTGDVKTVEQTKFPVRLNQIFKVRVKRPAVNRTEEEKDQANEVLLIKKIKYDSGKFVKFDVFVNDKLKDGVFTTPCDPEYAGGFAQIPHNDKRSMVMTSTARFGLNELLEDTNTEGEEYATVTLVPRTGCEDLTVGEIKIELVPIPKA
As to the kind of experiment: enzyme kinetics, diphenolase activity. Format: biochemical. As to conditions: type-III copper enzyme; read-out: Dopamine / K m. The text has this: (§1) enzyme kinetics, diphenolase activity on CgAUS (aurone synthase from Coreopsis grandiflora)

In data set [2] the target is T2, CgAUS (aurone synthase from Coreopsis grandiflora) (Coreopsis grandiflora, UniProt A0A075DN54).
T2 construct: recombinant from E. coli, purified to homogeneity
T2 sequence (A0A075DN54 86-602): T1 sequence (A0A075DN54 86-602 T338D/R342D) with D253T, D257R
As to the kind of experiment: enzyme kinetics, diphenolase activity. It counts as biochemical. Particulars: type-III copper enzyme, copper content 46.1%; read-out: Dopamine / K m.
Description: as §1

For data set [3], the target named is T3, CgAUS (aurone synthase from Coreopsis grandiflora) (Coreopsis grandiflora, UniProt A0A075DN54, T338D).
T3 construct: recombinant from E. coli, purified to homogeneity
T3 sequence (A0A075DN54 86-602 T338D): T1 sequence (A0A075DN54 86-602 T338D/R342D) with D257R
The data set is described as follows: enzyme kinetics, diphenolase activity. Format: biochemical. As to conditions: type-III copper enzyme; read-out: Dopamine / K m.
Description: as §1

Data set [4] has as its target T4, CgAUS (aurone synthase from Coreopsis grandiflora) (Coreopsis grandiflora, UniProt A0A075DN54, C182S/T338D/R342D).
T4 construct: recombinant from E. coli, purified to homogeneity
T4 sequence (A0A075DN54 86-602 C182S/T338D/R342D): T1 sequence (A0A075DN54 86-602 T338D/R342D) with C97S
As to the kind of experiment: enzyme kinetics, diphenolase activity. Format: biochemical. Particulars: type-III copper enzyme; read-out: Dopamine / K m.
Description: as §1

The target of data set [5] is T5, CgAUS (aurone synthase from Coreopsis grandiflora) (Coreopsis grandiflora, UniProt A0A075DN54, C182S).
T5 construct: recombinant from E. coli, purified to homogeneity
T5 sequence (A0A075DN54 86-602 C182S): T1 sequence (A0A075DN54 86-602 T338D/R342D) with C97S, D253T, D257R
The data set is described as follows: enzyme kinetics, diphenolase activity. Format: biochemical. Particulars: type-III copper enzyme; read-out: Dopamine / K m.
Description: as §1

The target in data set [6] is T6, CgAUS (aurone synthase from Coreopsis grandiflora) (Coreopsis grandiflora, UniProt A0A075DN54, R342D).
T6 construct: recombinant from E. coli, purified to homogeneity
T6 sequence (A0A075DN54 86-602 R342D): T1 sequence (A0A075DN54 86-602 T338D/R342D) with D253T
The data set is described as follows: enzyme kinetics, diphenolase activity. Particulars: type-III copper enzyme; read-out: Dopamine / K m. It counts as biochemical.
Description: as §1

Substrate in data set [7]: NCCc1ccc(O)cc1
The data set is described as follows: enzyme kinetics, monophenolase activity. It counts as biochemical, Coreopsis grandiflora. Particulars: type-III copper enzyme. The text has this:
enzyme kinetics, monophenolase activity on CgAUS (aurone synthase from Coreopsis grandiflora)

Where a chain is given by its changes, count along the chain named. Names and notes keep the numbering of the source.

`NCCc1ccc(O)c(O)c1` [dopamine]: the Km in data set [1] worked out at 240 ± 20 µM; in data set [2], 8630 ± 280 µM; in data set [3], 1930 ± 120 µM; in data set [4] it was 60 µM; in data set [5], 1260 ± 40 µM; in data set [6], 1260 ± 130 µM.

B1: CgAUS (aurone synthase from Coreopsis grandiflora) (Coreopsis grandiflora; C182S) (protein)
chain: T1 sequence (A0A075DN54 86-602 T338D/R342D) with C97S, D253T, D257R
notes: recombinant from E. coli, purified to homogeneity
The term kcat denotes the number of substrate molecules converted per active site and unit of time at saturation. Regarding B1, in data set [7], the Km amounted to 3590 ± 330 µM and the kcat was 0.55 ± 0.04 s⁻¹.

B2: CgAUS (aurone synthase from Coreopsis grandiflora) (Coreopsis grandiflora; R342D/T338D) (protein)
chain: T1 sequence (A0A075DN54 86-602 T338D/R342D)
notes: as for B1
Turning to B2, in data set [7], the Km was 1090 ± 90 µM and the kcat is 9.48 ± 0.55 s⁻¹.

B3: CgAUS (aurone synthase from Coreopsis grandiflora) (Coreopsis grandiflora; T338D) (protein)
chain: T1 sequence (A0A075DN54 86-602 T338D/R342D) with D257R
notes: as for B1
Turning to B3, in data set [7], the Km amounted to 30900 ± 7270 µM and the kcat came out at 2.14 ± 0.16 s⁻¹.

B4: CgAUS (aurone synthase from Coreopsis grandiflora) (Coreopsis grandiflora; C182S/R342D/T338D) (protein)
chain: T1 sequence (A0A075DN54 86-602 T338D/R342D) with C97S
notes: as for B1
As for B4, in data set [7], the Km was found to be 20 ± 0 µM and the kcat was found to be 6.52 ± 0.39 s⁻¹.

B5: CgAUS (aurone synthase from Coreopsis grandiflora) (Coreopsis grandiflora; R342D) (protein)
chain: T1 sequence (A0A075DN54 86-602 T338D/R342D) with D253T
notes: as for B1
For B5, in data set [7], the Km was found to be 4010 ± 290 µM and the kcat was 8.26 ± 0.48 s⁻¹.
